Four molecules from patent US20150266951A1 (SNU R AND DB FOUNDATION, published 2015) can be followed below.

The target in test [1] is T1, recombinant human IP-10 protein (IFN-γ-inducible protein 10) (human, UniProt P02778 22-98).
T1 construct: also called IP-10 antigen; recombinant IP-10
T1 sequence: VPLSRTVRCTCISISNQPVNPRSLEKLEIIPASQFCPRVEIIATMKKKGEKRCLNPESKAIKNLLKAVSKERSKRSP
The test is described as follows: western blot on recombinant human IP-10 protein.

In test [2] the target is T2, Epitope 4 of IP-10 (amino acids 61-98), recombinant segment expressed in E. coli from pET41 (human).
T2 construct: Segment cloned EcoRI/XhoI into PET41 vector and tested as lysate of the expressing E. coli in western blot; any tags from the vector are not described; not shown: vector-coded fusion part of pET41 (GST is run as the negative control)
T2 chain: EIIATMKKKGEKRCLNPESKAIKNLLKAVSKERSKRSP
The test is described as follows: western blot on recombinant IP-10 segments expressed in E. coli. As for the experimental part: E. coli expressing each of the 4 epitopes of recombinant IP-10 was suspended in PBS buffer (137 mM NaCl, 2.7 mM KCl, 10 mM Na2HPO4, 2 mM KH2PO4) and the same volume of SDS-gel loading buffer (100 mM Tris-C1 (pH 6.8), 4% SDS, 0.2% bromophenol blue, 20% glycerol, 200 mM DTT) and heated at 100° C. for 5 min. The mixture was then centrifuged at 13,000 rpm for 10 min and the supernatant was separated on 12% SDS-PAGE, and the proteins separated on the gel were transferred to a polyvinylidenfluoride membrane. Western blot was performed using anti-IP-10 antibody and enhanced chemiluminescent reagent.

B1: anti-IP-10 monoclonal antibody #129 (antibody, V domains shown)
VH: QVQLKQSGPGLVQPSQSLSITCTVSGFSLTSYGVHWVRQSPGKGLEWLGVIWSGGSTDYNAAFISRLSISKDNSKSQVFFKMNSLQANDTAIYYCARNWGAMDYWGQGTSVTVSS
VL: DIVMTQSPSSLSVSAGEKVTMSCKSSQSLLNSGNQKNYLAWYQQKPGQPPKLLIYGASTRESGVPDRFTGSGSGTDFTLTISSVQAEDLAVYYCQNDHSYPLTFGAGTKLELKR
notes: Mouse monoclonal antibody from a hybridoma; also called clone #129; clone #129 monoclonal antibody
As to B1, the binding result in test [1] and in test [2] was “binds” in each case.

B2: anti-IP-10 monoclonal antibody #77 (antibody, V domains shown)
VH: QIQLVHSGPELKKPGETVKISCKASGYTFTDYSMHWVKQAPGKGLKWMGWINTETGEPTYADDFKGRFAFSLETSASTAYLQINNLKNEDTATYFCARMYDYSYYFDYWGQGTTLTVSS
VL: DIQMTQSPASLSVSVGETVTITCRASENIYSNLAWYQQKQGKSPQLLVYAATNLADGVPSRFSGSGSGTQYSLKINSLQSEDFGSYYCQHFWGTPYTFGGGTKLEIKR
notes: Mouse monoclonal antibody from a hybridoma; also called clone #77; clone #77 monoclonal antibody
As to B2, the binding result in test [1] and in test [2] was “binds” in each case.

B3: anti-IP-10 monoclonal antibody #88 (antibody, V domains shown)
VH: EVMLVESGGGLVKPGGSLKLSCTVSGFTFSGYAMSWVRQTPEKRLEWVASITSGGSYTSYPDNMKGRLTISRDNDRNTLDLQMSSLRSEDTAMYFCTRHSPVIASWFAYWGQGTLVHC
VL: DVLMTQTPLSLPVSLGDQASISCRSSQSIVHSNGNTYLEWYLQKPGQSPKLLIYKVSNRFSGVPDRFSGSGSGTDFTLKISRVEAEDMGVYYCFQGSHVPFTFGSGTKLEIKR
notes: Mouse monoclonal antibody from a hybridoma; also called clone #88; clone #88 monoclonal antibody
For B3, the binding result in test [1] and in test [2] was “binds” throughout.

B4: anti-IP-10 monoclonal antibody #116 (antibody, V domains shown)
VH: QVQLQQSGPELVKPGASVKISCKASGYAFSSSWMNWVKQRPGQGLEWIGRIYPGDGDTNYNGKFKGKATLTADKSSSTAYMQLSSLTSVDSAVYFCARIGNYYGSSYLYWYFDVWGAGTTVTVS
VL: DIQMTQSPSSLSASLGGKVTITCKASQDIDKYIAWYQHRPGKGPSLLIHYTSTLQPGIPSRFSGSGSGKNYSFSISNLEPEDIATYYCLQYDNLLLTFGAGTKLELKR
notes: Mouse monoclonal antibody from a hybridoma; also called clone #116; clone #116 monoclonal antibody
Take B4: the binding result in test [1] and in test [2] was “binds” throughout.
